Two molecules from paper PMC6497169 (Nature microbiology, 2017) can be followed below.

Experiment [1] has as its target T1, IcmW (L. pneumophila (Philadelphia-1), UniProt Q5ZS31 1-151).
T1 sequence: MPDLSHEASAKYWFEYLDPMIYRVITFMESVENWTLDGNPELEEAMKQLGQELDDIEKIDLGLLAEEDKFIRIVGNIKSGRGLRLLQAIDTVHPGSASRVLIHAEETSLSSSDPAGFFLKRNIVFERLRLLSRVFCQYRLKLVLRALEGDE
Nature of the experiment: crystal structure.

Experiment [2] has as its target T2, DotN(7–214) (L. pneumophila (Philadelphia-1), UniProt Q5ZYB7 7-214).
T2 sequence: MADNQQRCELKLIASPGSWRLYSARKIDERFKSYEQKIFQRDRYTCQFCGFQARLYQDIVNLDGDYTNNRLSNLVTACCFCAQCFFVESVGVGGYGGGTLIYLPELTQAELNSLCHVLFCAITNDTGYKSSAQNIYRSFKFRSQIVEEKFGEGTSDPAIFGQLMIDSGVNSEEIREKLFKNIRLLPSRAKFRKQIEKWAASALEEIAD
As to the kind of experiment: crystal structure.

B1: DotL(656–783) (domain or fragment)
chain: GQNEPEPVEDIVEEEVEGALTIFSKLRIDPNAPPILVADKEVFSEPLLPINETRNQMITIERLAGAKDKYAGTVANELIKDFQIATSYPPEERDVIDVQELTGIIRDLSAKISAEREKANKKAAEELT
Take B1: the binding result in experiment [1] was “binds”.

B2: DotL(590–659) (domain or fragment)
chain: VEPPPDDYLMKLQKQLASFQSILESGDLSINKAVENEEITLISKALKESTIVEPIERGVAALIAFHGQNE
Take B2: the binding result in experiment [2] is recorded as “binds”.
